Source: patent publication US20180172683A1, “METHODS FOR ANALYZING THE INTERACTION BETWEEN A TARGET PROTEIN AND A LIGAND” (UNIVERSITY OF SOUTHERN CALIFORNIA, priority 2015, published 2018)
Values joined by “and” are separate entries in the source; they are usually repeats but may differ in a detail not shown here. Equal values may be shown once.

Experiments:
[1] = target: B-cell lymphoma extra-large protein (Bcl-xL), first 209 amino acids with N-terminal avitag (UniProt Q07817); test: Kd1 (free mAb to Bcl-xL), divalent model, forward and reverse equilibrium assays combined, known [L]0
B-cell lymphoma extra-large protein (Bcl-xL), first 209 amino acids with N-terminal avitag, sequence (Q07817 other isoform, or with tags, fused parts or gaps): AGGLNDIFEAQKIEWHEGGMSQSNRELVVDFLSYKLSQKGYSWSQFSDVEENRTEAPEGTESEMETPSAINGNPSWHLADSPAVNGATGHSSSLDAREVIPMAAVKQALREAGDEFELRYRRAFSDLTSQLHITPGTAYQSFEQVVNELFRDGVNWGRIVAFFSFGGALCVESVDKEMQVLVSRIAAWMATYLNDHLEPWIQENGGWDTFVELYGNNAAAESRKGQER

[2] = target: B-cell lymphoma extra-large protein (Bcl-xL), first 209 amino acids with N-terminal avitag (UniProt Q07817); test: forward equilibrium assay, Kd and [L]0 fit simultaneously, monovalent and divalent models
[3] = target: B-cell lymphoma extra-large protein (Bcl-xL), first 209 amino acids with N-terminal avitag (UniProt Q07817); test: equilibrium ELISA, divalent model
[4] = target: B-cell lymphoma extra-large protein (Bcl-xL), first 209 amino acids with N-terminal avitag (UniProt Q07817); test: reverse equilibrium assay, divalent model; percent of monovalently bound mAb that does not interact with immobilized Bcl-xL
[5] = target: B-cell lymphoma extra-large protein (Bcl-xL), first 209 amino acids with N-terminal avitag (UniProt Q07817); test: forward equilibrium assay, Kd-only fit, monovalent model (said to fit poorly)
[6] = target: B-cell lymphoma extra-large protein (Bcl-xL), first 209 amino acids with N-terminal avitag (UniProt Q07817); test: equilibrium AMMP, divalent model
[7] = target: B-cell lymphoma extra-large protein (Bcl-xL), first 209 amino acids with N-terminal avitag (UniProt Q07817); test: Kd2 (monovalently bound mAb to a second Bcl-xL), divalent model, reverse assay only, known [L]0
[8] = target: B-cell lymphoma extra-large protein (Bcl-xL), first 209 amino acids with N-terminal avitag (UniProt Q07817); test: Kd1 (free mAb to Bcl-xL), divalent model, forward and reverse equilibrium assays combined, Kd and [L]0 fit simultaneously
[9] = target: B-cell lymphoma extra-large protein (Bcl-xL), first 209 amino acids with N-terminal avitag (UniProt Q07817); test: Kd2 (monovalently bound mAb to a second Bcl-xL), divalent model, reverse assay only, Kd and [L]0 fit simultaneously
[10] = target: B-cell lymphoma extra-large protein (Bcl-xL), first 209 amino acids with N-terminal avitag (UniProt Q07817); test: forward equilibrium assay, Kd-only fit, divalent model

Kd [1]: 0.021 nM | Kd [2]: 0.011 nM | Kd [3]: 0.02 nM | percent of monovalently bound mAb not interacting with immobilized Bcl-xL [4]: 74% and 73% | Kd [5]: 0.038 nM | Kd [6]: 0.012 nM | Kd [7]: 3.3 nM | Kd [8]: 0.019 nM | Kd [9]: 4 nM | Kd [10]: 0.014 nM
Substance: 54H6 monoclonal antibody against Bcl-xL (commercial)
